This passage reports Kd results from the Immune Epitope Database (IEDB).

Among the targets are HLA-A*68:02; HLA-A*23:01; HLA-A*02:03; HLA-A*02:12; HLA-B*57:01; HLA-A*80:01; HLA-B*39:01; HLA-A*69:01; HLA-B*51:01; HLA-A*29:02; HLA-A*26:01; HLA-A*02:01; HLA-B*46:01; HLA-A*02:11; HLA-A*02:19; HLA-A*24:03; HLA-A*02:16.
Test in all cases: IEDB peptide-MHC binding, purified MHC/competitive/fluorescence; filed as Kd, often an IC50 or EC50 that approximates it; ≥ and ≤ were set here for values at or beyond the usual limits of such assays
Holding throughout (details): source organism: Escherichia coli O157:H7 str. Sakai

As for HQIWLALRY, the Kd in the test with HLA-A*68:02 was no less than 20 µM; in the test with HLA-A*23:01 it was no less than 20 µM; in the test with HLA-A*02:03 it was no less than 20 µM; with HLA-A*02:12, no less than 20 µM; in the test with HLA-B*57:01 it was no less than 20 µM; with HLA-A*80:01, 0.0072 µM. The dissociation constant Kd in the test with HLA-B*39:01 is no less than 20 µM; with HLA-A*69:01, no less than 20 µM; with HLA-B*51:01, no less than 20 µM; with HLA-A*29:02 it was 0.0016 µM; with HLA-A*26:01 it was no less than 20 µM; in the test with HLA-A*02:01 it was no less than 20 µM. Besides, the Kd with HLA-B*46:01, in the test with HLA-A*02:11, in the test with HLA-A*02:19, with HLA-A*24:03 and with HLA-A*02:16 was no less than 20 µM each time.
